One molecule from paper PMC2922993 can be followed below.

In the test the target is T1, BRAF-HDAC Complex 80 (BHC80)-PHD finger, Q96BD5.
T1 chain: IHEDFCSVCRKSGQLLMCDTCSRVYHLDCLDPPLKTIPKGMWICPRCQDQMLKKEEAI
Briefly: ITC. (ITC needs no label: the signal is the heat of the interaction.)

What is called Kd is the concentration at which binding is half-saturated. A lower Kd goes with higher affinity.

Take ARTKQTARKSTG (modifications not checked) [unmodified H3 peptide]: the Kd turned out to be 19.6 µM.
